The record followed here is PMC12758336.

The target of one test is NRBF2_5A (UniProt Q8VCQ3). Put plainly: co-IP; competitive co-IP: FLAG-tagged bait and GFP-tagged competitor transiently over-expressed in HEK293T; anti-FLAG M2 magnetic beads; immunoblot for endogenous PIK3R4/VPS15 and PIK3C3/VPS34; Figure 6C also after 100 nM rapamycin (2 h) or EBSS medium (2 h). A general note: In western blotting, separated proteins are transferred to a membrane and probed.

For the next test, the target named is NRBF2_3A (UniProt Q8VCQ3). The description is as above.

With “endogenous PIK3R4/VPS15 (from UniProt Q99570 1-1358) (natural protein)”, the endogenous PIK3R4/VPS15 pulled down, against wild type (% less than wild type) in the test with NRBF2_5A and with NRBF2_3A was 50 throughout.
